Test results: US20220017622A1 (Pfizer, published 2022)
Numbering of substitutions follows the chain as printed.

T1: human B7-H4 on cells (human, UniProt Q7Z7D3 25-282)
T1 sequence (looked up): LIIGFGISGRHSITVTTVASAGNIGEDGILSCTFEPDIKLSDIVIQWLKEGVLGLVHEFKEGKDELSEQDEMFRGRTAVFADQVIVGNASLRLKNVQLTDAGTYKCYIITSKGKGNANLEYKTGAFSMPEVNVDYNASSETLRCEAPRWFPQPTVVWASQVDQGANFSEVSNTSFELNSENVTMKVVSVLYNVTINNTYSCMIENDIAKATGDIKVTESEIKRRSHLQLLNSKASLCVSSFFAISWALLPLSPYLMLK

B1: B7-H4xCD3 bispecific antibody 0998 (bispecific antibody, IgG2)
heavy 1: EVQLLESGGGLVQPGGSLRLSCAASGFTFSSYAMSWVRQAPGKGLEWVSAISGGGGSTQYADSVKGRFTISRDNSKNTLYLQMNSLRAEDTAVYYCARDIQWFGESTLFDYWGQGTLVTVSSASTKGPSVFPLAPCSRSTSESTAALGCLVKDYFPEPVTVSWNSGALTSGVHTFPAVLQSSGLYSLSSVVTVPSSNFGTQTYTCNVDHKPSNTKVDKTVERKCEVECPECPAPPVAGPSVFLFPPKPKDTLMISRTPEVTCVVVAVSHEDPEVQFNWYVDGVEVHNAKTKPREEQFNSTFRVVSVLTVVHQDWLNGKEYKCKVSNKGLPSSIEKTISKTKGQPREPQVYTLPPSREEMTKNQVSLTCEVKGFYPSDIAVEWESNGQPENNYKTTPPMLDSDGSFFLYSKLTVDKSRWQQGNVFSCSVMHEALHNHYTQKSLSLSPG
light 1: DIQLTQSPSTLSASVGDRVTITCRASQSIRSWLAWFQQKPGKAPKLLIYKASSLEGGVPSRFSGSGSGTEFTLTISSLQPDDFATYYCQQYNSYSRTFGQGTKVEIKRTVAAPSVFIFPPSDEQLKSGTASVVCLLNNFYPREAKVQWKVDNALQSGNSQESVTEQDSKDSTYSLSSTLTLSKADYEKHKVYACEVTHQGLSSPVTKSFNRGEC
heavy 2: EVQLVESGGGLVQPGGSLRLSCAASGFTFSDYYMTWVRQAPGKGLEWVAFIRNQARGYTSDHNPSVKGRFTISRDNAKNSLYLQMNSLRAEDTAVYYCARDRPSYYVLDYWGQGTTVTVSSASTKGPSVFPLAPCSRSTSESTAALGCLVKDYFPEPVTVSWNSGALTSGVHTFPAVLQSSGLYSLSSVVTVPSSNFGTQTYTCNVDHKPSNTKVDKTVERKCRVRCPRCPAPPVAGPSVFLFPPKPKDTLMISRTPEVTCVVVAVSHEDPEVQFNWYVDGVEVHNAKTKPREEQFNSTFRVVSVLTVVHQDWLNGKEYKCKVSNKGLPSSIEKTISKTKGQPREPQVYTLPPSREEMTKNQVSLTCLVKGFYPSDIAVEWESNGQPENNYKTTPPMLDSDGSFFLYSRLTVDKSRWQQGNVFSCSVMHEALHNHYTQKSLSLSPGK
light 2: DIQMTQSPSSLSASVGDRVTITCTSSQSLFNVRSQKNYLAWYQQKPGKAPKLLIYWASTRESGVPSRFSGSGSGTDFTLTISSLQPEDFATYYCKQSYDLFTFGGGTKVEIKRTVAAPSVFIFPPSDEQLKSGTASVVCLLNNFYPREAKVQWKVDNALQSGNSQESVTEQDSKDSTYSLSSTLTLSKADYEKHKVYACEVTHQGLSSPVTKSFNRGEC
B2: B7-H4xCD3 bispecific antibody 1003 (bispecific antibody, IgG2)
heavy 1: B1 heavy 1 with Q59Y
light 1: B1 light 1 with L4M, T10S, I29T, W32H, F36Y, E70D, D81E, N92G
heavy 2: B1 heavy 2
light 2: B1 light 2
B3: B7-H4xCD3 bispecific antibody 1001 (bispecific antibody, IgG2)
heavy 1: B1 heavy 1 with Q59Y, E105R
light 1: B1 light 1
heavy 2: B1 heavy 2
light 2: B1 light 2
B4: B7-H4xCD3 bispecific antibody 1130 (bispecific antibody, IgG2)
heavy 1: EVQLVESGGGLVQPGGSLRLSCAASGGSFSGYYWNWIRQPPGKGLEWIGEINHSGSATYNPSLKSRVTISVDTAKNSLYLQMNSLRAEDTAVYYCARGLYNWNVDHWGQGTLVTVSSASTKGPSVFPLAPCSRSTSESTAALGCLVKDYFPEPVTVSWNSGALTSGVHTFPAVLQSSGLYSLSSVVTVPSSNFGTQTYTCNVDHKPSNTKVDKTVERKCEVECPECPAPPVAGPSVFLFPPKPKDTLMISRTPEVTCVVVAVSHEDPEVQFNWYVDGVEVHNAKTKPREEQFNSTFRVVSVLTVVHQDWLNGKEYKCKVSNKGLPSSIEKTISKTKGQPREPQVYTLPPSREEMTKNQVSLTCEVKGFYPSDIAVEWESNGQPENNYKTTPPMLDSDGSFFLYSKLTVDKSRWQQGNVFSCSVMHEALHNHYTQKSLSLSPG
light 1: DIQMTQSPSSLSASVGDRVTITCRASQGIRNDLGWYQQKPGKAPKRLIYAASSLQSGVPSRFSGSGSGTDFTLTISSLQPEDFATYYCLQHNAYPRTFGGGTKVEIKRTVAAPSVFIFPPSDEQLKSGTASVVCLLNNFYPREAKVQWKVDNALQSGNSQESVTEQDSKDSTYSLSSTLTLSKADYEKHKVYACEVTHQGLSSPVTKSFNRGEC
heavy 2: B1 heavy 2
light 2: B1 light 2
B5: B7-H4xCD3 bispecific antibody 1000 (bispecific antibody, IgG2)
heavy 1: B1 heavy 1 with Q59Y, F103H
light 1: B1 light 1
heavy 2: B1 heavy 2
light 2: B1 light 2
B6: B7-H4xCD3 bispecific antibody 1135 (bispecific antibody, IgG2)
heavy 1: B4 heavy 1 with I37V, P40A
light 1: B4 light 1
heavy 2: B1 heavy 2
light 2: B1 light 2
B7: B7-H4xCD3 bispecific antibody 0974 (bispecific antibody, IgG2)
heavy 1: B4 heavy 1 with N52D, S54Q, A57T, T58K
light 1: B4 light 1
heavy 2: B1 heavy 2
light 2: B1 light 2
B8: B7-H4xCD3 bispecific antibody 1166 (bispecific antibody, IgG2)
heavy 1: B1 heavy 1 with Q59Y, F103Y
light 1: B1 light 1 with L4M, T10S, I29T, F36Y, E70D, D81E, N92G
heavy 2: B1 heavy 2
light 2: B1 light 2

Molecular target: T1, human B7-H4 on cells
Assay: cell-based or functional assay
For T cell mediated tumor cell killing, OVCAR3-Luc in this document: unit not given here.

Binder | T cell mediated tumor cell killing EC50, HCC1954-Luc [nM] | T cell mediated tumor cell killing, OVCAR3-Luc
B1 | 410 | –
B2 | 100 | –
B3 | 10 | –
B4 | 73700 | 810
B5 | 100 | –
B6 | 1200 | 420
B7 | 764 | –
B8 | 15500 | 800
